Source: patent US20150126390A1

Molecular target: tau-CFP/YFP protein biosensors (UniProt P10636)
Test: cell-based or functional assay

Chain of tau-CFP/YFP protein biosensors (P10636 561-689, form in doubt): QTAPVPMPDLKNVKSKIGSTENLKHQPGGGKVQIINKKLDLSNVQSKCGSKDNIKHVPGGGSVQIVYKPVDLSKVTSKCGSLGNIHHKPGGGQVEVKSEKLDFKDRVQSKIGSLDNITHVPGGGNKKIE
Chain of recombinant full-length (2N,4R) tau fibrils, preparation C (50 µM octadecyl sulfate, 37° C.) (P10636 other isoform, or with tags, fused parts or gaps limits assumed): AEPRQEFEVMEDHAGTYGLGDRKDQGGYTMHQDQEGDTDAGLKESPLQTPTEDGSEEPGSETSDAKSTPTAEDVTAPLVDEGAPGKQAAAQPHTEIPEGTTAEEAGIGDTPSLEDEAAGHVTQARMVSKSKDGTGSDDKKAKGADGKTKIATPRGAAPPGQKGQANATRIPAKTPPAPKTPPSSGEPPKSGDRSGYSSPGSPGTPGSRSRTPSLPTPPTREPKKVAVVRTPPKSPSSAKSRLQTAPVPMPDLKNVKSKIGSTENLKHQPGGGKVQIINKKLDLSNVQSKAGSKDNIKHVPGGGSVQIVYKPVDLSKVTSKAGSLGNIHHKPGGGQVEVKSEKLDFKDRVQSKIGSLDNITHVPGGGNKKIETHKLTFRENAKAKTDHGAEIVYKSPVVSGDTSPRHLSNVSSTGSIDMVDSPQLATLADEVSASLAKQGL
Chain of recombinant full-length (2N,4R) tau fibrils, preparation A (8 µM heparin, 37° C.) (P10636 other isoform, or with tags, fused parts or gaps limits assumed): as above
Chain of recombinant full-length (2N,4R) tau fibrils, preparation B (8 µM heparin, 22° C.) (P10636 other isoform, or with tags, fused parts or gaps limits assumed): as above

EC50 (pM) of seeding, FRET flow cytometry in biosensor cell line | Plateau (fold increase) of seeding, FRET flow cytometry in biosensor cell line (fold increase) | Substance
4.3 pM | 6.55 | recombinant full-length (2N,4R) tau fibrils, preparation B (8 µM heparin, 22° C.) (from UniProt P10636 2-441)
141 pM | 4.19 | recombinant full-length (2N,4R) tau fibrils, preparation C (50 µM octadecyl sulfate, 37° C.) (from UniProt P10636 2-441)
< 1 pM | 6.67 | recombinant full-length (2N,4R) tau fibrils, preparation A (8 µM heparin, 37° C.) (from UniProt P10636 2-441)
